Assay results: US6645762B2, “Synthases” (The Salk Institute for Biological Studies, priority 1998, dated 2003)
Numbering of substitutions follows the chain as printed. Names may count otherwise.

B1: wild-type TEAS: tobacco 5-epi-aristolochene synthase (TEAS) protein, SEQ ID NO:2, Nicotiana tabacum (protein)
chain: MASAAVANYEEEIVRPVADFSPSLWGDQFLSFSIKNQVAEKYAQEIEALKEQTRNMLLATGMKLADTLNLIDTIERLGISYHFEKEIDDILDQIYNQNSNCNDLCTSALQFRLLRQHGFNISPEIFSKFQDENGKFKESLASDVLGLLNLYEASHVRTHADDILEDALAFSTIHLESAAPHLKSPLREQVTHALEQCLHKGVPRVETRFFISSIYDKEQSKNNVLLRFAKLDFNLLQMLHKQELAQVSRWWKDLDFVTTLPYARDRVVECYFWALGVYFEPQYSQARVMLVKTISMISIVDDTFDAYGTVKELEAYTDAIQRWDINEIDRLPDYMKISYKAILDLYKDYEKELSSAGRSHIVCHAIERMKEVVRNYNVESTWFIEGYTPPVSEYLSNALATTTYYYLATTSYLGMKSATEQDFEWLSKNPKILEASVIICRVIDDTATYEVEKSRGQIATGIECCMRDYGISTKEAMAKFQNMAETAWKDINEGLLRPTPVSTEFLTPILNLARIVEVTYIHNLDGYTHPEKVLKPHIINLLVDSIKI
B2: TEAS C440W: TEAS mutant with tryptophan at position 440 (protein, UniProt Q40577 1-548, looked up, variant C440W)
5-epi-aristolochene synthase: B1 chain with Q44K, C440W
B3: boiled W273E-TEAS: boiled W273E-TEAS used as control in alkylation experiment (protein, UniProt Q40577 1-548, looked up, variant W273E)
5-epi-aristolochene synthase: B1 chain with Q44K, W273E
modifications: heat-denatured (boiled)
notes: boiled W273E-TEAS used as control in alkylation experiment
B4: TEAS W273S: TEAS mutant with serine at position 273 (protein, UniProt Q40577 1-548, looked up, variant W273S)
5-epi-aristolochene synthase: B1 chain with Q44K, W273S
B5: TEAS C440W/W273S: TEAS double mutant, tryptophan at position 440 and serine at position 273, SEQ ID NO:10 (protein)
chain: B1 chain with K35D, N55S, M62R, T73I, D89E, W273S, T388M, C440W
B6: TEAS Y520F: TEAS protein in which Tyr520 is changed to Phe, SEQ ID NO:6 (protein)
chain: B1 chain with K35D, N55S, M62R, T73I, D89E, T388M, Y520F
B7: TEAS Y527F: TEAS protein in which Tyr527 is changed to Phe, SEQ ID NO:8 (protein)
chain: B1 chain with K35D, N55S, M62R, T73I, D89E, T388M, Y527F
B8: TEAS W273E: TEAS protein in which Trp273 is changed to Glu, SEQ ID NO:4 (protein)
chain: B1 chain with K35D, N55S, M62R, T73I, D89E, W273E, T388M

Tests used:
Type in all cases: biochemical
[1] = Diterpene synthase activity assay with radiolabelled GGPP (solvent extraction, scintillation counting, Ag-TLC); conditions: for conversion of GGPP to hexane-extractable products: 0.5 micromolar 3H GGPP plus unlabelled GGPP, 60 minutes at room temperature; for counts in hexane and ethyl acetate extracts after incubation with radiolabelled GGPP: hydrocarbon products extracted with hexane, oxygenated products with ethyl acetate, compared with buffer alone; for hexane-extractable products formed from GGPP, analyzed by Ag-TLC: overnight incubation at room temperature, FIG. 3
Protocol: (§1) Synthase activity assays were carried out based on the assay described in Vogeli and Chappell, Plant Physiol. 94:1860 (1990) and Vogeli, et al., Plant Physiol. 93:182 (1990). In general, radio-labeled (^3H or ^14C) substrate was incubated with enzyme at room temperature in a buffered magnesium salt solution (200 mM Tris, pH 8, 50 mM Mg chloride, 1 mM DTT, unless otherwise noted); hydrocarbon products were then selectively extracted into an organic solvent such as hexane. The hexane extract generally was treated with silica gel to remove prenyl alcohols and other oxygenated compounds generated by non-enzymatic hydrolysis of substrate, which partition inefficiently into hexane. Hydrocarbon products present in the hexane phase were quantitated by scintillation counting.
A subsequent extraction with a more polar organic solvent such as ethyl acetate was sometimes carried out. Oxygenated compounds more efficiently partition into ethyl acetate-type solvents. Compounds present in the ethyl acetate phase were also quantitated by scintillation counting.
(§2) Substrate concentrations typically ranged from 0.1 nanomolar to 100 micromolar. In some assays, the substrate was not radiolabeled. Reactions generally were carried out in triplicate for each substrate concentration. Protein concentration was determined by the Bradford method. For determination of steady-state kinetic parameters, enzyme concentrations were chosen such that generation of products over time was linear throughout the course of the reaction.
(§3) Diterpene synthase assays typically were carried out using ^3H geranylgeranyl diphosphate (GGPP) and enzyme in 250 mM Tris, 10 mM Mg chloride, 1 mM DTT, pH 8.0. Sesquiterpene synthase assays typically were carried out using ^14C or ^3H FPP and enzyme in 100 mM Tris, 30 mM Mg chloride, 1 mM DTT, pH 8.0. Monoterpene synthase assays typically were carried out using ^3H GPP and enzyme. As a control for nonspecific binding of GPP by protein, identical reactions were set up which contained BSA, rather than enzyme.
(§4) Terpenoid hydrocarbon products are not readily separated by thin layer chromatography on normal or reverse-phase plates; however, some can be separated by argentation TLC (Ag-TLC), in which silica plates are first treated with silver nitrate. Ag-TLC described here generally followed the procedure described by Back et al., Arch. Biochem. Biophys. 315:527 (1994). A silica TLC plate was dipped in 15% silver nitrate (aqueous), then dried for 3-5 hours at 110° C. After spotting of tritiated enzymatic products (solvent extract), the plate was developed in benzene:hexane, ethyl acetate (50:50:1, by volume), sprayed with En^3Hance (NEN) fluorography spray, placed on film, and exposed for several days to several weeks. Long exposure times were generally necessary, as silver-nitrate treatment of the TLC plate appeared to cause quenching of the fluorography reagents fluorescence. Alternatively, ^14C labelled products were detected after one to two days without the use of fluorography spray.
The TEAS W273S enzyme and radiolabelled GGPP were incubated as described above and hydrocarbon products were extracted with hexane. Oxygenated products were then extracted with ethyl acetate.
The mutant TEAS C440W1W273S protein contains a tryptophan residue at position 440 and a serine residue at position 273. Assays with GGPP were carried out using 0.5 micromolar ^3H GGPP, various concentrations of unlabelled GGPP (Echelon), and enzyme. Reactions were incubated for 60 minutes at room temperature. […] Hexane-extractable products of GGPP turnover by the double mutant were analyzed by Ag-TLC. The products included two species (Rf=0.11 and 0.28) that were distinct from the hydrolysis product geranyl geraniol (Rf=0.0).To verify that products generated by TEAS C440W/W273S from GGPP were not the hydrolysis product, geranylgeraniol, a sample was analyzed by Ag-TLC. […]

[2] = Alkylation of enzyme by radiolabeled FPP; conditions: dependent upon the presence of MgCl2
Protocol: Reactions to determine the products made by TEAS W273E using FPP as substrate were carried out essentially as described above, using radioiabeled FPP. […] The alkylation was dependent upon the presence of MgCl2 in the reaction mixture. In control experiments, boiled W273E-TEAS, as well as wild-type TEAS and BSA, were not alkylated.

[3] = Sesquiterpene synthase activity assay with radiolabelled FPP (Ag-TLC and GC/MS product analysis); conditions: for products of FPP turnover, analyzed by Ag-TLC: radiolabelled FPP, FIG. 4
Protocol: as §1, §2, §3, §4
Products of FPP turnover by the purified TEAS W273S mutant were analyzed by argentation thin-layer chromatography (Ag-TLC).
Reactions with FPP as substrate were carded out with ^14C FPP (9 μm) and enzyme (160 μm) in reaction buffer (20 μl). After incubating for 30 minutes at room temperature, products made by TEAS C440W/W273S were analyzed by Ag-TLC. […] The new product was distinct from both 5-epi-aristolochene and vetispiradiene. Several other products were also formed, many of which migrated slowly upon argentation TLC.
Reactions with radiolabeled FPP and TEAS Y520F enzyme were carried out essentially as described above. Reaction products were analysed by Ag-TLC and by GC/MS.

[4] = Monoterpene synthase activity assay with GPP; conditions: crude extract of enzyme from E. coli
Protocol: as §1, §3
A crude extract of TEAS Y527F enzyme was made by inducing expression in E. coli cells, and sonicating the cells. […]

| Molecule | alkylation of the enzyme by FPP [2] | hexane-extractable products formed from GGPP, analyzed by Ag-TLC [1] | products of FPP turnover, hexane extract analyzed by GC/MS [3] | products of FPP turnover, analyzed by Ag-TLC [3] | also measured |
| --- | --- | --- | --- | --- | --- |
| B1 | not alkylated | – | – | – | conversion of GGPP to hexane-extractable products [1]: did not; counts in hexane and ethyl acetate extracts after incubation with radiolabelled GGPP [1]: counts lower than buffer alone |
| B2 | – | no hexane-extractable products were detectable | single major sesquiterpene hydrocarbon product as well as a small number of minor hydroxylated products | at least one major terpenoid hydrocarbon product | – |
| B3 | not alkylated | – | – | – | – |
| B4 | – | distinct from the products made by acid-catalyzed loss of diphosphates from GGPP | at least four terpene hydrocarbons | distinct from both 5-epi-aristolochene (Rf=0.78) and vetispiradiene (Rf=0.63) | counts in hexane and ethyl acetate extracts after incubation with radiolabelled GGPP [1]: counts that were significantly higher for both the hexane and ethyl acetate extracts |
| B5 | – | different from those generated by non-enzymatic degradation of geranylgeranyl diphosphate | – | – | conversion of GGPP to hexane-extractable products [1]: converted GGPP to hexane-extractable products |
| B6 | – | – | same GC retention time as authentic germacrene A and the same mass spectrum as authentic germacrene A | – | – |
| B7 | – | – | – | products other than 5-epi-aristolochene were generated | products formed with GPP as a substrate (monoterpene synthase activity) [4]: No products were observed |
| B8 | alkylation of TEAS by FPP had occurred | – | – | at least one product other than 5-epi-aristolochene was formed | – |
